The Immune Epitope Database (IEDB)
pKd: −log10 of the molar value.

Experiments:
HLA-B*18:01 = assay: IEDB peptide-MHC binding, purified MHC/direct/fluorescence; filed as Kd, often an IC50 or EC50 that approximates it; ≥ and ≤ were set here for values at or beyond the usual limits of such assays
HLA-B*48:01 [1] = assay: as above
HLA-B*38:01 = assay: as above
HLA-A*01:01 = assay: as above
HLA-B*27:05 [2] = assay: as above
HLA-B*40:01 [3] = assay: as above
HLA-B*15:17 [4] = assay: as above
HLA-B*57:01 = assay: as above
HLA-B*58:01 = assay: as above
HLA-A*11:01 = assay: as above
HLA-B*46:01 = assay: as above
HLA-A*03:01 = assay: as above
HLA-B*51:01 = assay: as above
HLA-A*02:03 = assay: IEDB peptide-MHC binding, purified MHC/competitive/fluorescence; filed as Kd, often an IC50 or EC50 that approximates it; ≥ and ≤ were set here for values at or beyond the usual limits of such assays; settings: source organism: Mycobacterium tuberculosis variant bovis BCG str. Pasteur 1173P2
HLA-A*31:01 [5] = assay: as above; settings: source organism: Mycobacterium tuberculosis variant bovis BCG str. Pasteur 1173P2
HLA-B*15:01 [6] = assay: as above
HLA-A*69:01 [7] = assay: as above; settings: source organism: Mycobacterium tuberculosis variant bovis BCG str. Pasteur 1173P2
HLA-A*02:01 = assay: as above
HLA-B*08:02 = assay: IEDB peptide-MHC binding, purified MHC/direct/fluorescence; filed as Kd, often an IC50 or EC50 that approximates it; ≥ and ≤ were set here for values at or beyond the usual limits of such assays; settings: source organism: Ravn virus - Ravn, Kenya, 1987
HLA-B*39:01 [8] = assay: as above; settings: source organism: Marburg virus - Musoke, Kenya, 1980
HLA-B*08:01 [9] = assay: as above; settings: source organism: Ravn virus - Ravn, Kenya, 1987
HLA-B*15:01 [10] = assay: as above; settings: source organism: Marburg virus - Musoke, Kenya, 1980
HLA-A*69:01 [11] = assay: as above
HLA-A*26:03 = assay: as above; settings: source organism: Ravn virus - Ravn, Kenya, 1987
HLA-B*48:01 [12] = assay: IEDB peptide-MHC binding, purified MHC/competitive/fluorescence; filed as Kd, often an IC50 or EC50 that approximates it; ≥ and ≤ were set here for values at or beyond the usual limits of such assays; settings: source organism: Orthomarburgvirus marburgense
HLA-A*30:01 = assay: as above; settings: source organism: Orthomarburgvirus marburgense
HLA-B*07:02 [13] = assay: as above; settings: source organism: Orthomarburgvirus marburgense
HLA-B*15:17 [14] = assay: as above; settings: source organism: Orthomarburgvirus marburgense
HLA-A*68:02 = assay: as above; settings: source organism: Orthomarburgvirus marburgense
HLA-A*26:01 = assay: IEDB peptide-MHC binding, purified MHC/direct/fluorescence; filed as Kd, often an IC50 or EC50 that approximates it; ≥ and ≤ were set here for values at or beyond the usual limits of such assays; settings: source organism: Variola virus
HLA-A*31:01 [15] = assay: as above; settings: source organism: Camelpox virus CMS
HLA-B*07:02 [16] = assay: as above; settings: source organism: Camelpox virus CMS
HLA-B*15:09 = assay: IEDB peptide-MHC binding, purified MHC/competitive/fluorescence; filed as Kd, often an IC50 or EC50 that approximates it; ≥ and ≤ were set here for values at or beyond the usual limits of such assays; settings: source organism: Ectromelia virus
HLA-B*08:01 [17] = assay: as above; settings: source organism: Ectromelia virus
HLA-A*24:02 = assay: IEDB peptide-MHC binding, purified MHC/direct/fluorescence; filed as Kd, often an IC50 or EC50 that approximates it; ≥ and ≤ were set here for values at or beyond the usual limits of such assays; settings: source organism: Orthohantavirus hantanense
HLA-A*24:03 = assay: as above; settings: source organism: Orthohantavirus hantanense
HLA-B*83:01 = assay: IEDB peptide-MHC binding, purified MHC/competitive/fluorescence; filed as Kd, often an IC50 or EC50 that approximates it; ≥ and ≤ were set here for values at or beyond the usual limits of such assays
HLA-B*45:06 = assay: as above
HLA-B*15:42 = assay: as above
HLA-A*32:07 = assay: as above
HLA-C*04:01 = assay: as above; settings: source organism: Hantaan virus 76-118
HLA-B*27:05 [18] = assay: as above; settings: source organism: Mycobacterium tuberculosis variant bovis BCG str. Pasteur 1173P2
HLA-B*39:01 [19] = assay: as above; settings: source organism: Escherichia coli 536
HLA-B*40:01 [20] = assay: as above; settings: source organism: Escherichia coli 536
HLA-B*27:20 = assay: as above; settings: source organism: Escherichia coli 536
HLA-B*40:13 = assay: as above; settings: source organism: Escherichia coli 536
[21] = source organism: Mycobacterium tuberculosis
[22] = source organism: Mycobacterium tuberculosis variant bovis BCG str. Pasteur 1173P2
[23] = source organism: Marburg virus - Musoke, Kenya, 1980
[24] = source organism: Camelpox virus CMS
[25] = source organism: Ectromelia virus
[26] = source organism: Hantaan virus 76-118
[27] = source organism: Escherichia coli 536

RVEESRARL was tested, and the pKd (HLA-B*18:01; [21]) was ≤ 4.70, the pKd (HLA-B*48:01 [1]; [21]) was ≤ 4.70 and the pKd (HLA-B*38:01; source organism: Mycobacterium tuberculosis str. Haarlem) was ≤ 4.70. The pKd (HLA-A*01:01; [21]) was ≤ 4.70, the pKd (HLA-B*27:05 [2]; [21]) was ≤ 4.70 and the pKd (HLA-B*40:01 [3]; [21]) was ≤ 4.70. The pKd (HLA-B*15:17 [4]; [21]) was 7.71, the pKd (HLA-B*57:01; [21]) was 5.60 and the pKd (HLA-B*58:01; [21]) was ≤ 4.70. The pKd (HLA-A*11:01; [21]) was ≤ 4.70, the pKd (HLA-B*46:01; [21]) was ≤ 4.70 and the pKd (HLA-A*03:01; [21]) was ≤ 4.70. For the same sequence, the pKd (HLA-B*51:01; [21]) was ≤ 4.70, the pKd (HLA-A*02:03) was ≤ 4.70 and the pKd (HLA-A*31:01 [5]) was ≤ 4.70. For the same sequence, the pKd (HLA-B*15:01 [6]; [22]) was ≤ 4.70, the pKd (HLA-A*69:01 [7]) was ≤ 4.70 and the pKd (HLA-A*02:01; [22]) was ≤ 4.70.

In the case of YHLGGIEGL, the pKd (HLA-B*18:01; [23]) was ≤ 4.70, the pKd (HLA-B*08:02) was ≤ 4.70 and the pKd (HLA-A*01:01; [23]) was ≤ 4.70. The pKd (HLA-B*27:05 [2]; [23]) was ≤ 4.70, the pKd (HLA-B*39:01 [8]) was 7.39 and the pKd (HLA-B*08:01 [9]) was ≤ 4.70. For the same sequence, the pKd (HLA-B*15:01 [10]) was ≤ 4.70, the pKd (HLA-B*40:01 [3]; [23]) was ≤ 4.70 and the pKd (HLA-A*69:01 [11]; [23]) was 5.62. For the same sequence, the pKd (HLA-B*57:01; [23]) was ≤ 4.70, the pKd (HLA-B*58:01; [23]) was ≤ 4.70 and the pKd (HLA-A*26:03) was ≤ 4.70. For the same sequence, the pKd (HLA-B*46:01; [23]) was ≤ 4.70, the pKd (HLA-B*48:01 [12]) was 6.81 and the pKd (HLA-A*30:01) was ≤ 4.70. The pKd (HLA-B*07:02 [13]) was ≤ 4.70, the pKd (HLA-B*15:17 [14]) was ≤ 4.70 and the pKd (HLA-A*68:02) was 5.84. The pKd (HLA-A*02:01; source organism: Orthomarburgvirus marburgense) was 8.15.

VIARTHTAL was tested, and the pKd (HLA-B*18:01; [24]) was ≤ 4.70, the pKd (HLA-B*48:01 [1]; [24]) was ≤ 4.70 and the pKd (HLA-B*38:01; source organism: Variola virus) was ≤ 4.70. The pKd (HLA-A*01:01; [24]) was ≤ 4.70, the pKd (HLA-B*27:05 [2]; [24]) was ≤ 4.70 and the pKd (HLA-A*26:01) was ≤ 4.70. For the same sequence, the pKd (HLA-A*31:01 [15]) was ≤ 4.70, the pKd (HLA-B*07:02 [16]) was 7.23 and the pKd (HLA-B*40:01 [3]; [24]) was ≤ 4.70. The pKd (HLA-A*69:01 [11]; [24]) was ≤ 4.70, the pKd (HLA-B*15:17 [4]; [24]) was ≤ 4.70 and the pKd (HLA-B*57:01; [24]) was ≤ 4.70. For the same sequence, the pKd (HLA-B*58:01; [24]) was ≤ 4.70, the pKd (HLA-A*11:01; [24]) was ≤ 4.70 and the pKd (HLA-A*03:01; [24]) was ≤ 4.70. For the same sequence, the pKd (HLA-B*51:01; [24]) was ≤ 4.70, the pKd (HLA-B*15:09) was ≤ 4.70 and the pKd (HLA-B*08:01 [17]) was 7.29. For the same sequence, the pKd (HLA-B*15:01 [6]; [25]) was 6.11 and the pKd (HLA-A*02:01; [25]) was ≤ 4.70.

With RYRTAVCGL the pKd (HLA-A*24:02) was 7.62, the pKd (HLA-A*24:03) was 8.17 and the pKd (HLA-B*83:01; [26]) was ≤ 5.30. For the same sequence, the pKd (HLA-B*45:06; [26]) was ≤ 5.30, the pKd (HLA-B*15:42; [26]) was ≤ 5.30 and the pKd (HLA-A*32:07; [26]) was 8.12. The pKd (HLA-C*04:01) was ≤ 5.30.

In the case of GRAVSSATF, the pKd (HLA-B*27:05 [18]) was 6.85.

RQRAVRMVL was tested, and the pKd (HLA-B*83:01; [27]) was ≤ 5.30, the pKd (HLA-B*45:06; [27]) was ≤ 5.30 and the pKd (HLA-B*39:01 [19]) was ≤ 5.30. For the same sequence, the pKd (HLA-B*15:01 [6]; [27]) was 6.45, the pKd (HLA-B*40:01 [20]) was 5.73 and the pKd (HLA-B*15:42; [27]) was 5.29. For the same sequence, the pKd (HLA-B*27:20) was 8.80, the pKd (HLA-A*32:07; [27]) was 7.51 and the pKd (HLA-B*40:13) was 7.29.
